Laboratory results from US8540999B2, “Allergenic proteins and peptides from Japanese cedar pollen” (Merck Patent GmbH, priority 1991, dated 2013).

How the values were obtained:
[1] = test system: Cry j I reactive T cells; test: T cell proliferation assay, Cry j I primed T cell lines (Example 6); format: cell-based, human
Experimental: Viable cells were purified by LSM centrifugation and cultured in complete medium supplemented with 5 units recombinant human IL-2/ml and 5 units recombinant human IL-4/ml for up to three weeks until the cells no longer responded to lymphokines and were considered “rested”. The ability of the T cells to proliferate to selected peptides, recombinant Cry j I (rCry j I), purified native Cry j I, or recombinant Amb aI.1 (rAmb aI.1) or a positive control, phyto-hemaglutinin (PHA) was then assessed. For assay, 2×10^4 rested cells were restimulated in the presence of 2×10^4 autologous Epstein-Barr virus (EBV)-transformed B cells (prepared as described below) (gamma-irradiated with 25,000 RADS) with 2-50 μg/ml of selected peptides, Cry j I, purified native Cry j I or rAmb a I.1 or PHA, in a volume of 200 μl complete medium in duplicate or triplicate wells in 96-well round bottom plates for 2-4 days. […] Each well then received 1 μCi tritiated thymidine for 16-20 hours. The counts incorporated were collected onto glass fiber filter mats and processed for liquid scintillation counting. […] The titrations were used to optimize the dose of peptides in T cell assays. The maximum response in a titration of each peptide is expressed as the stimulation index (S.I.). The S.I. is the counts per minute (CPM) incorporated by cells in response to peptide, divided by the CPM incorporated by cells in medium only.
The above procedure was followed with a number of other patients. […] The bars represent the positivity index. Above each bar is the percent of positive responses with an S.I. of at least two to the peptide or protein in the group of patients tested. In parenthesis above each bar are the mean stimulation indices for each peptide or protein for the group of patients tested.
Autologous EBV-transformed cell lines were y-irradiated with 25,000 Rad and used as antigen presenting cells in secondary proliferation assays and secondary bulk stimulations. These EBV-transformed cell lines were made by incubating 5×10^6 PBL with 1 ml of B-59/8 Marmoset cell line (ATCC CRL1612, American Type Culture Collection, Rockville, Md.) conditioned medium in the presence of 1 μg/ml phorbol 12-myristate 13-acetate (PMA) at 37° C. for 60 minutes in 12×75 mm polypropylene round-bottom Falcon snap cap tubes (Becton Dickinson Labware, Lincoln Park, N.J.). These cells were then diluted to 1.25×10^6 cells/ml in RPMI-1640 as described above except supplemented with 10% heat-inactivated fetal bovine serum and cultured in 200 μl aliquots in flat bottom culture plates until visible colonies were detected. They were then transferred to larger wells until the cell lines were established.

[2] = test system: Cry j I reactive T cells; test: T cell proliferation assay, Cry j I primed T cell lines, modified peptides (Example 11); format: cell-based, human; conditions: panel of thirty-nine patients, FIG. 21
Experimental: Long term T cell lines were established by stimulation of 2×10^6 PBL/ml in bulk cultures of complete medium (RPMI-1640, 2 mM L-glutamine, 100 U/ml penicillin/streptomycin, 5×10^−5M 2-mercaptoethanol, and 10 mM HEPES supplemented with 5% heat inactivated human AB serum) with 20 μg/ml of partially purified native Cry j I (75% purity containing three bands similar to the three bands in FIG. 2) for 6 days at 37° C. in a humidified 5% CO2 incubator to select for Cry j I reactive T cells. This amount of priming antigen was determined to be optimal for the activation of T cells from most cedar pollen allergic patients. Viable cells were purified by LSM centrifugation and cultured in complete medium supplemented with 5 units recombinant human IL-2/ml and 5 units recombinant human IL4/ml for up to three weeks until the cells no longer responded to lymphokines and were considered “rested”. The ability of the T cells to proliferate to selected Cry j I peptides, partially purified Cry j I, affinity purified Cry j I, or positive (PHA) controls or negative controls (medium only) was then assessed. […]
The maximum response in a titration of each peptide is expressed as the stimulation index (S.I.). […]

[3] = test system: IgE antibodies; conditions: Sakaguchi (1990); cited from earlier work

B1: purified native Cry j I: major allergen of Japanese cedar pollen, biochemically purified in the native form (protein)
chain: DNPIDSCWRGDSNWAQNRMKLADCAVGFGSSTMGGKGGDLYTVTNSDDDPVNPAPGTLRYGATRDRPLWIIFSGNMNIKLKMPMYIAGYKTFDGRGAQVYIGNGGPCVFIKRVSNVIIHGLYLYGCSTSVLGNVLINESFGVEPVHPQDGDALTLRTATNIWIDHNSFSNSSDGLVDVTLTSTGVTISNNLFFNHHKVMLLGHDDAYSDDKSMKVTVAFNQFGPNCGQRMPRARYGLVHVANNNYDPWTIYAIGGSSNPTILSEGNSFTAPNESYKKQVTIRIGCKTSSSCSNWVWQSTQDVFYNGAYFVSSGKYEGGNIYTKKEAFNVENGNATPQLTKNAGVLTCSLSKRC
T cell line response ([1]; panel of twenty-five patients, FIG. 14): All twenty-five T cell lines responded
T cell proliferative response ([1]; patient #999, FIG. 12): responds well
T cell line response [2]: All but one of the thirty-nine T cell lines responded
allergic patients with IgE that only reacted with this allergen [3]: 29%
